Assay results reported in article PMC5514391 (EBioMedicine, 2017).

Target: the molecule itself
Assay: SEC

B1: AdcR H42A/H108A (site 1 metal ligand mutant) (natural protein)
chain: MGTLEKKLDNLVNTILLKAENQHELLFGACQSDVKLTNTQEAILMLLSQQRLTNTDLAKALNISQAAVTKAIKSLVKQDMLAGTKDTVDARVTYFELTELAKPIASEATHHHDETLNVYNRLLQKFSAKELEIVDKFVTVFAEELEG
  stoichiometry N: 2

B2: AdcR C30A (site 2 metal ligand mutant) (natural protein)
chain: MGTLEKKLDNLVNTILLKAENQHELLFGAAQSDVKLTNTQEHILMLLSQQRLTNTDLAKALNISQAAVTKAIKSLVKQDMLAGTKDTVDARVTYFELTELAKPIASEHTHHHDETLNVYNRLLQKFSAKELEIVDKFVTVFAEELEG
  stoichiometry N: 2
